Results on one molecule are retold here after publication PMC6392109.

This assay deals with T1, YFP-DAT, Q01959.
T1 chain: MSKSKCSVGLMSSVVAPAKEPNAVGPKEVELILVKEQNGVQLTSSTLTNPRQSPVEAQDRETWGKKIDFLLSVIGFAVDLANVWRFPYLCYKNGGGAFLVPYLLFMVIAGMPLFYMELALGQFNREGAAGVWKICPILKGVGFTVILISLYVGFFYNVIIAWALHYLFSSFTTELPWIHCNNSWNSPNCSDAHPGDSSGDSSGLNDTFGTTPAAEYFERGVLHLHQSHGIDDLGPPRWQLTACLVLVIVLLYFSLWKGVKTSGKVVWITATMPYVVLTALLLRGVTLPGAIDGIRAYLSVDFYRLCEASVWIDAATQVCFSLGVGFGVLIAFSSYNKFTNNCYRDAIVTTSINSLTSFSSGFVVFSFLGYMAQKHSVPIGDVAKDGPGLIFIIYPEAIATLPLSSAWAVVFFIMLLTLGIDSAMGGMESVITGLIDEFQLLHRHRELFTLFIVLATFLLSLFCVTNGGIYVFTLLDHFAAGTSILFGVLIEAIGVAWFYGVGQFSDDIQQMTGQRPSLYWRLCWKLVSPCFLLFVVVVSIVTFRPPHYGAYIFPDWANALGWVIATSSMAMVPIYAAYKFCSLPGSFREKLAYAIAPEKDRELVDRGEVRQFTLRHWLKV
Put plainly: FRET or BRET; CFP- and YFP-labelled proteins co-expressed in HEK293 cells; three-filter method, 63x oil immersion objective; FRET efficiency, n = 20-30 per group. The note with it: remark: other sources report otherwise. On the technique in general: Bioluminescence resonance energy transfer reports proximity on the nanometre scale.

B1: CFP-Flot1, O75955 1-427 (natural protein)
chain: MFFTCGPNEAMVVSGFCRSPPVMVAGGRVFVLPCIQQIQRISLNTLTLNVKSEKVYTRHGVPISVTGIAQVKIQGQNKEMLAAACQMFLGKTEAEIAHIALETLEGHQRAIMAHMTVEEIYKDRQKFSEQVFKVASSDLVNMGISVVSYTLKDIHDDQDYLHSLGKARTAQVQKDARIGEAEAKRDAGIREAKAKQEKVSAQYLSEIEMAKAQRDYELKKAAYDIEVNTRRAQADLAYQLQVAKTKQQIEEQRVQVQVVERAQQVAVQEQEIARREKELEARVRKPAEAERYKLERLAEAEKSQLIMQAEAEAASVRMRGEAEAFAIGARARAEAEQMAKKAEAFQLYQEAAQLDMLLEKLPQVAEEISGPLTSANKITLVSSGSGTMGAAKVTGEVLDILTRLPESVERLTGVSISQVNHKPLRTA
Turning to B1, the FRET efficiency was 7.62.
